Patent US20210347899A1 (BRIGHAM AND WOMEN S HOSPITAL, published 2021)
Residue numbers refer to the chain shown, from its start.

T1: human KLRG1 ECD (human, UniProt Q96E93 60-186, biotinylated in the OCTET assay, site not stated)
T1 construct: Recombinant proteins were made as FC fusion or as HIS tagged versions; also called Human-KLRG-ECD
T1 sequence: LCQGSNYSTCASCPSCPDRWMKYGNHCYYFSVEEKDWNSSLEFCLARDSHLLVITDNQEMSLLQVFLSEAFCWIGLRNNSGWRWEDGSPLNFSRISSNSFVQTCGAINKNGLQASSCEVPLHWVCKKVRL

T2: cynomolgus KLRG1 ECD (cynomolgus, biotinylated in the OCTET assay, site not stated)
T2 construct: Recombinant proteins were made as FC fusion or as HIS tagged versions; also called cynonolgus KLRG1 ECD
T2 chain: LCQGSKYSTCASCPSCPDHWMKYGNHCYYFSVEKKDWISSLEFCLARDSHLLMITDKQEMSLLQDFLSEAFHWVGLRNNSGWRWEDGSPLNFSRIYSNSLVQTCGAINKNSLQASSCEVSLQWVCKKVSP

T3: full length human KLRG1 (human, UniProt Q96E93 1-195)
T3 construct: whole, on cells; also called CHO-human-KLRG1; CHO-hKLRG1
T3 sequence (looked up): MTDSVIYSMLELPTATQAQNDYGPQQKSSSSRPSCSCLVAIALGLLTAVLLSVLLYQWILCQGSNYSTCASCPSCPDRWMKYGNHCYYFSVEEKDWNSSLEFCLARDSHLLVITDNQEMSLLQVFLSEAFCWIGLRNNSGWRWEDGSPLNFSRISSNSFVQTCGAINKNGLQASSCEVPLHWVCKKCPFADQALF

T4: full length cynomolgus KLRG1 (cynomolgus, UniProt A0A2K5WAP9 1-186)
T4 construct: whole, on cells; also called Cyno KLRG1; CHO-cynomolgus-KLRG1
T4 sequence: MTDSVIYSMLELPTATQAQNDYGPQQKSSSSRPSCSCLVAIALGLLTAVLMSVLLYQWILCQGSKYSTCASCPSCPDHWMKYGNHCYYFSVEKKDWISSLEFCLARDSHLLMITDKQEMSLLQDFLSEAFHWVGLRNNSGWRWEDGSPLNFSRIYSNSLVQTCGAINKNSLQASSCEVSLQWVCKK

B1: ABC_HG1N01 (antibody, IgG1, V domains shown)
VH: QVILKESGPGLVKPTQTLTLTCTFSGFSLTTFGMGIGWIRQPPGKALEWLAHIWWNDDKSYNSALKSRLTISKDTSKNQVVLTMTNMDPVDTATYYCARTIYYGNYLTFYAMEHWGQGTTVTVSS
VL: DILMTQSPLSLPVTPGEPASISCRSSQNIVHSNGNTYLEWYLQKPGQSPRLLIYKVSNRFSGVPDRFSGSGSGTDFTLKISRVEAEDVGVYYCFQGSHVPPTFGAGTKLELKR
B2: ABC_HG1N02 (antibody, IgG1, V domains shown)
VH: QVTLKESGPGLVKPTQTLTLTCTFSGFSLSTFGMGVGWIRQPPGKALEWLAHIWWDDDKWYELALKSRLTISKDSSKNQVVLTMTNMDPVDTATYYCARVIYYGSRSAYYSMDYWGPGTTVTVSS
VL: B1 VL with R24K, N28S, N35H, P101V
B3: ABC_HG1N07 (antibody, IgG1, V domains shown)
VH: QVQLVESGGGLVKPGGSLRLSCAASGFTFRNYAMSWIRQTPGKGLEWVATISESGNYNNYPDNVKGRLTISRDNAKNSLYLQMNSLKAEDTAVYYCVRDDWEGRAMDYWGQGTTVTVSS
VL: DIQMTQSPSSLSASVGDRVTITCRASRDIGSSLNWYQQKPGGAPKRLIYATSSLDSGVPKRFSGSGSGTDFTLTISSLQSEDFATYYCLQYASSPWTFGQGTKVEIKR
B4: ABC_G1N06 (antibody, V domains shown)
VH: QVQLKQSGPGLVQPSQSLSITCTVSGFSLTTHAVHWVRQSPGKGLDWLGVIWSGGNTDYNAAFISRLTISKDNSKSQVFFKMNSLQADDTAIYYCVRLLLPAMDYWGQGTSVTVSS
VL: QIVLTQSPAIMSASLGERVTMTCTATSSVSSTYLHWYRQKPGSSPKLWIYSTSTLASGVPVRFRGSGSGTSYSLTISSMEAEDAATYYCHQYRRSPYTFGGGTKLEIK
notes: Mouse hybridoma monoclonal antibody
B5: ABC_G1N01 (antibody, V domains shown)
VH: QVILKESGPGILQPSQTLSLTCSFSGFSLTTFGMGIGWIRHPSGKALEWLAHIWWNDDKSYNSALKSRLTISKDTSKNQVFLRLANVATADTATYYCARTIYYGNYLTFYAMEHWGQGTSVTVSS
VL: DVLLTQTPLSLPVSLGDQASISCRSSQNIVHSNGNTYLEWYLLKPGQSPKLLIFKVSNRFSGVPDKFSGSGSGTDFTLKIRRVEAEDLGIYYCFQGSHVPPTFGAGTKLELK
notes: as for B4
B6: ABC_G1N03 (antibody, V domains shown)
VH: QVHLQQSGPELVKPGASVKLSCKASGDTFTTYDITWVKQRPGQGLEWIGWIYPKDGRTQNSEKFKDKATLTVDTSSTTAYMELHSLTSEDSAVYFCARRGQFGPYFDHWGQGSTLTVSS
VL: VIQMTQSSSFLSASLGGRVSITCRASDHIYNWLAWYQQKPGNAPRLLISGATSLETGIPSRFSGGGSGKDYTLTIISLQTEDIASYYCQQYWNTPPTFGGGTKVEIK
notes: as for B4
B7: ABC_G1N04 (antibody, V domains shown)
VH: DVQLVESGGGLVQPGGSRKLSCAASGFSFSTFGMHWVRQVPEKGLEWVAYISSGSYSIFYADSVKGRFTISRDNPKNTLFLQMTSLRSEDTAIYYCTRTRDSGSSPHYFDYWGQGTTVTVSS
VL: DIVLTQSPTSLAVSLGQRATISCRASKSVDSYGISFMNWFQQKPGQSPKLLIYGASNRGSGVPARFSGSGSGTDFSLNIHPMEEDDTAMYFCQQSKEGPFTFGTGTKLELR
notes: as for B4

These binders were tested against T1, human KLRG1 ECD (assay: BLI (OCTET), biotinylated antigen on streptavidin sensor, 1:1 fit).
Protocol: (§1) Binding kinetics of humanized antibodies for human and cynomolgus KLRG1 were determined by OCTET® measurement. OCTET® Systems use Bio-Layer Interferometry (BLI) technology to monitor the binding of proteins and other biomolecules to their partners directly in real time, providing analysis of kinetic binding constants. See https.//www.fortebio.com/bli-technology.html, the contents of which, including all links and sublinks associated therewith, is incorporated by reference herein in its entirety. The experimental set-up consists of immobilizing biotinylated recombinant antigen (Human-KLRG-ECD or cynomolgus-KLRG1-ECD) on streptavidin OCTET® sensor to produce antigen loaded sensors. The loaded sensors are the exposed to varying concentrations of each humanized antibody from 100 to 0.1 nM in the OCTET® instruments and data collected for 600 seconds to measure association kinetic (Kₒₙ) of the antibody/antigen complex. […] Kinetic binding parameters derived by this method are summarized in Table 9 for the three humanized antibodies.

Kd | koff | kon | Binder
0.125 nM | 0.000287 s⁻¹ | 2.29e+06 M⁻¹ s⁻¹ | B1
0.243 nM | 0.000681 s⁻¹ | 2.8e+06 M⁻¹ s⁻¹ | B2
< 0.0051 nM | < 1e-05 s⁻¹ | 1.97e+06 M⁻¹ s⁻¹ | B3

Target: T2, cynomolgus KLRG1 ECD
Assay: as above
Protocol: as §1

Kd | koff | kon | Binder
0.0617 nM | 4.1e-05 s⁻¹ | 664000 M⁻¹ s⁻¹ | B1
0.0647 nM | 4.07e-05 s⁻¹ | 630000 M⁻¹ s⁻¹ | B2
1.42 nM | 0.00125 s⁻¹ | 880000 M⁻¹ s⁻¹ | B3

Each binder was assayed against T3, full length human KLRG1 (assay: FACS on CHO-human-KLRG1 cells).
Protocol: (§2) Binding of anti-KLRG1 monoclonal antibodies to cell expressed human and cynomolgus-KLRG1 was carried out by FACS. Chinese hamster ovary (CHO) cells were stably transfected to express full length human KLRG1 (CHO-human-KLRG1) and cynomolgus KLRG1 (CHO-cynomolgus-KLRG1).

EC50 | Binder
1.43 nM | B4
1.21 nM | B5
1.3 nM | B6
29 nM | B7

Each binder was assayed against T4, full length cynomolgus KLRG1 (assay: FACS on CHO-cynomolgus-KLRG1 cells).
Protocol: as §2

EC50 | Binder
1.5 nM | B4
1.45 nM | B5
1.06 nM | B6
0.47 nM | B7

Target: T2, cynomolgus KLRG1 ECD
Assay: hybridoma screen for binding to KLRG1 ECD

binding result | Binder
binds | B4
binds | B5
binds | B6
binds | B7

These binders were tested against T3, full length human KLRG1 (assay: cell-based or functional assay).

IFNγ | Binder
1200 pg/mL | B5

The binders below were run against T3, full length human KLRG1 (assay: FACS competition, loss of HIS tagged E-cadherin binding to CHO-hKLRG1 cells).
Protocol: The ability of monoclonal antibodies to inhibit E-cadherin/KLRG1 binding was measured by FACS. Binding of E-cadherin to CHO-hKLRG1 cells was first determined by incubating the KLRG1 expressing cells with varying concentration of HIS tagged recombinant E-cadherin and detected by FACS with anti-HIS detection antibody.

IC50 | Binder
41 nM | B4
12.2 nM | B5

Target: T3, full length human KLRG1
Assay: cell-based or functional assay
Remark: another data set of the same source

IFNγ released (pg/ml), Sample 1 | IFNγ released (pg/ml), Sample 2 | Binder
1020 pg/mL | 1140 pg/mL | B4
1190 pg/mL | 1220 pg/mL | B5
934 pg/mL | 869 pg/mL | B6
987 pg/mL | 1000 pg/mL | B7
